Source: US20240132593A1 (KINETA, published 2024)

How the values were obtained:
[1] = biological target: T1, rhFcRn (R&D) (human (printed as rhFcRn), UniProt P55899 24-297; P61769 21-119); assay: BLI Octet K2, antibody on FAB2G sensor, rhFcRn analyte (row of 800 nM), pH 6.0, 1:1 global fit
T1 construct: Bought reagent; also called neonatal Fc receptor; FcRn ligand

[2] = biological target: T1, rhFcRn (R&D); assay: BLI Octet K2, antibody on FAB2G sensor, rhFcRn analyte (row of 50 nM), pH 6.0, 1:1 global fit
[3] = biological target: T1, rhFcRn (R&D); assay: BLI Octet K2, antibody on FAB2G sensor, rhFcRn analyte (row of 200 nM), pH 6.0, 1:1 global fit
[4] = biological target: T2, Antibody No. 465.1; assay: peptide blocking ELISA on plate-bound VISTA, peptide 20 ug/mL
T2 construct: also called Ab No. 465.1

[5] = biological target: Antibody No. 245.1; assay: as above
[6] = biological target: VSTB174; assay: as above
[7] = biological target: T2, Antibody No. 465.1; assay: peptide blocking ELISA on plate-bound VISTA, peptide 2 ug/mL
[8] = biological target: Antibody No. 245.1; assay: as above
[9] = biological target: VSTB174; assay: as above
[10] = biological target: T3, VISTA-His ECD (Sino Biological 13482-H08H) (human, UniProt Q9H7M9 33-194); assay: BLI (Octet K2), ratio of the pH 6.0 fold change to the pH 7.4 fold change
T3 construct: Bought protein; also called VISTA-ECD; not shown: His tag

[11] = biological target: T3, VISTA-His ECD (Sino Biological …); assay: BLI (Octet K2), ratio of off-rates at pH 7.4 to control Ab No. 245.1
[12] = biological target: T4, hVISTA ECD-Fc R54A, F62A, Q63A (human); assay: ELISA on immobilized VISTA-Fc (5 µg/mL), antibody at 10 µg/mL
T4 construct: also called human VISTA-Fc 54A62A63A; triple VISTA-Fc mutant

VSTB174, sequence (VH, as listed by the source, chain 1 of 2): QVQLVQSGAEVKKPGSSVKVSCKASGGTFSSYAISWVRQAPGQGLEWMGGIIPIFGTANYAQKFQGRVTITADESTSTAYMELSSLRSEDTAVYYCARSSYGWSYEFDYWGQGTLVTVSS
VSTB174, sequence (VL, as listed by the source, chain 2 of 2): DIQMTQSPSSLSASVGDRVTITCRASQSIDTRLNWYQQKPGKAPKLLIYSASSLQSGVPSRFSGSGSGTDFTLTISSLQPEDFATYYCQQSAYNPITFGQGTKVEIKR

Binder	ΔKdis (pH 6.0)/ΔKdis (pH 7.4) [10]	Kdis (pH 7.4) ÷ Kdis, Ab No. 245.1 (pH 7.4) [11]	further results
Antibody No. 150.1 (antibody, human IgG1, kappa, Human IgG1 with the YTE mutations (M252Y, S254T, T256E, EU numbering), kappa light chain; It is left out here; copies: 2 + 2) heavy: QVQLQESGPGLVKPSETLSLTCTVSGGSISSYYWSWIRQPPGKGLEWIGYIYYSGSTNYNPSLKSRVTISVDTSKSQFSLKLSSVTAADTAVYYCARDIPAFAFDIWGQGTMVIVSSASTKGPSVFPLAPSSKSTSGGTAALGCLVKDYFPEPVTVSWNSGALTSGVHTFPAVLQSSGLYSLSSVVTVPSSSLGTQTYICNVNHKPSNTKVDKKVEPKSCDKTHTCPPCPAPELLGGPSVFLFPPKPKDTLYITREPEVTCVVVDVSHEDPEVKFNWYVDGVEVHNAKTKPREEQYNSTYRVVSVLTVLHQDWLNGKEYKCKVSNKALPAPIEKTISKAKGQPREPQVYTLPPSRDELTKNQVSLTCLVKGFYPSDIAVEWESNGQPENNYKTTPPVLDSDGSFFLYSKLTVDKSRWQQGNVFSCSVMHEALHNHYTQKSLSLSPGK light: not shown			Kd [1]: 84.1 nM; koff [1]: 0.0192 s⁻¹; kon [1]: 228000 M⁻¹ s⁻¹; Kd [2]: 84.1 nM; koff [2]: 0.0192 s⁻¹; kon [2]: 228000 M⁻¹ s⁻¹; Kd [3]: 84.1 nM; koff [3]: 0.0192 s⁻¹; kon [3]: 228000 M⁻¹ s⁻¹
CVVYPSSSQESENIT (synthetic overlapping peptide from human VISTA) [Spiked Peptide 30 (CVVYPSSSQESENIT)]			percent reduction in ELISA signal [4]: 0%; percent reduction in ELISA signal [5]: 0%; percent reduction in ELISA signal [6]: 21%; percent reduction in ELISA signal [7]: 0%; percent reduction in ELISA signal [8]: 0%; percent reduction in ELISA signal [9]: 12%
Antibody No. 474.1 with VH Y32H, VH Y52H (antibody, V domains shown) VH: QVQLQESGPGLVKPSETLSLTCTVSGGSISSHYWSWIRQPPGKGLEWIGYIHYSGSTNYNPSLKSRVTISVDTSKSQFSLKLSSVTAADTAVYYCARDIPAFAFDIWGQGTMVIVSS VL: EIVLTQSPATLSLSPGERATLSCRASQSVSYYLAWYQQKPGQAPRLLIYDAFNRATGIPARFSGSGSGTDFTLTISSLEPEDFAVYYCQQRINWPLTFGGGTKVEIK	3.4	5 s⁻¹	
Antibody No. 474.1 with VL Y31H, VH Y32H (antibody, V domains shown) VH: QVQLQESGPGLVKPSETLSLTCTVSGGSISSHYWSWIRQPPGKGLEWIGYIYYSGSTNYNPSLKSRVTISVDTSKSQFSLKLSSVTAADTAVYYCARDIPAFAFDIWGQGTMVIVSS VL: EIVLTQSPATLSLSPGERATLSCRASQSVSHYLAWYQQKPGQAPRLLIYDAFNRATGIPARFSGSGSGTDFTLTISSLEPEDFAVYYCQQRINWPLTFGGGTKVEIK	5.8	12 s⁻¹	
Antibody No. 474.1 with VL Y32H, VH Y32H, VH Y33H (antibody, V domains shown) VH: QVQLQESGPGLVKPSETLSLTCTVSGGSISSHHWSWIRQPPGKGLEWIGYIYYSGSTNYNPSLKSRVTISVDTSKSQFSLKLSSVTAADTAVYYCARDIPAFAFDIWGQGTMVIVSS VL: EIVLTQSPATLSLSPGERATLSCRASQSVSYHLAWYQQKPGQAPRLLIYDAFNRATGIPARFSGSGSGTDFTLTISSLEPEDFAVYYCQQRINWPLTFGGGTKVEIK	2.4	56 s⁻¹	
Antibody No. 474.1 with VH Y32H, VH Y33H, VH Y52H (antibody, V domains shown) VH: QVQLQESGPGLVKPSETLSLTCTVSGGSISSHHWSWIRQPPGKGLEWIGYIHYSGSTNYNPSLKSRVTISVDTSKSQFSLKLSSVTAADTAVYYCARDIPAFAFDIWGQGTMVIVSS VL: EIVLTQSPATLSLSPGERATLSCRASQSVSYYLAWYQQKPGQAPRLLIYDAFNRATGIPARFSGSGSGTDFTLTISSLEPEDFAVYYCQQRINWPLTFGGGTKVEIK	5.2	14 s⁻¹	
Antibody No. 474.1 with VL Y32H, VH Y52H (antibody, V domains shown) VH: QVQLQESGPGLVKPSETLSLTCTVSGGSISSYYWSWIRQPPGKGLEWIGYIHYSGSTNYNPSLKSRVTISVDTSKSQFSLKLSSVTAADTAVYYCARDIPAFAFDIWGQGTMVIVSS VL: EIVLTQSPATLSLSPGERATLSCRASQSVSYHLAWYQQKPGQAPRLLIYDAFNRATGIPARFSGSGSGTDFTLTISSLEPEDFAVYYCQQRINWPLTFGGGTKVEIK	3.4	45 s⁻¹	
Antibody No. 474.1 with VL Y31H, VH Y52H (second of two rows so labelled, the 40th table r13) (antibody, human IgG1, V domains shown) VH: QVQLQESGPGLVKPSETLSLTCTVSGGSISSYYWSWIRQPPGKGLEWIGYIHYSGSTNYNPSLKSRVTISVDTSKSQFSLKLSSVTAADTAVYYCARDIPAFAFDIWGQGTMVIVSS VL: EIVLTQSPATLSLSPGERATLSCRASQSVSHYLAWYQQKPGQAPRLLIYDAFNRATGIPARFSGSGSGTDFTLTISSLEPEDFAVYYCQQRINWPLTFGGGTKVEIK	3.8	37 s⁻¹	
Antibody No. 474.1 with VL Y32H, VH Y32H, VH Y52H (antibody, V domains shown) VH: QVQLQESGPGLVKPSETLSLTCTVSGGSISSHYWSWIRQPPGKGLEWIGYIHYSGSTNYNPSLKSRVTISVDTSKSQFSLKLSSVTAADTAVYYCARDIPAFAFDIWGQGTMVIVSS VL: EIVLTQSPATLSLSPGERATLSCRASQSVSYHLAWYQQKPGQAPRLLIYDAFNRATGIPARFSGSGSGTDFTLTISSLEPEDFAVYYCQQRINWPLTFGGGTKVEIK	1.8	71 s⁻¹	
Antibody No. 474.1 with VL Y31H, VH Y32H, VH Y52H (antibody, V domains shown) VH: QVQLQESGPGLVKPSETLSLTCTVSGGSISSHYWSWIRQPPGKGLEWIGYIHYSGSTNYNPSLKSRVTISVDTSKSQFSLKLSSVTAADTAVYYCARDIPAFAFDIWGQGTMVIVSS VL: EIVLTQSPATLSLSPGERATLSCRASQSVSHYLAWYQQKPGQAPRLLIYDAFNRATGIPARFSGSGSGTDFTLTISSLEPEDFAVYYCQQRINWPLTFGGGTKVEIK	2	61 s⁻¹	
Antibody No. 474.1 with VL Y32H, VH Y33H (antibody, V domains shown) VH: QVQLQESGPGLVKPSETLSLTCTVSGGSISSYHWSWIRQPPGKGLEWIGYIYYSGSTNYNPSLKSRVTISVDTSKSQFSLKLSSVTAADTAVYYCARDIPAFAFDIWGQGTMVIVSS VL: EIVLTQSPATLSLSPGERATLSCRASQSVSYHLAWYQQKPGQAPRLLIYDAFNRATGIPARFSGSGSGTDFTLTISSLEPEDFAVYYCQQRINWPLTFGGGTKVEIK	2.7	52 s⁻¹	
Antibody No. 474.1 with VH Y32H, VH Y33H (antibody, V domains shown) VH: QVQLQESGPGLVKPSETLSLTCTVSGGSISSHHWSWIRQPPGKGLEWIGYIYYSGSTNYNPSLKSRVTISVDTSKSQFSLKLSSVTAADTAVYYCARDIPAFAFDIWGQGTMVIVSS VL: EIVLTQSPATLSLSPGERATLSCRASQSVSYYLAWYQQKPGQAPRLLIYDAFNRATGIPARFSGSGSGTDFTLTISSLEPEDFAVYYCQQRINWPLTFGGGTKVEIK	6.9	4 s⁻¹	
Antibody No. 474.1 with VL Y32H, VH Y32H (antibody, V domains shown) VH: QVQLQESGPGLVKPSETLSLTCTVSGGSISSHYWSWIRQPPGKGLEWIGYIYYSGSTNYNPSLKSRVTISVDTSKSQFSLKLSSVTAADTAVYYCARDIPAFAFDIWGQGTMVIVSS VL: EIVLTQSPATLSLSPGERATLSCRASQSVSYHLAWYQQKPGQAPRLLIYDAFNRATGIPARFSGSGSGTDFTLTISSLEPEDFAVYYCQQRINWPLTFGGGTKVEIK	5.9	15 s⁻¹	
Antibody No. 474.1 with VL Y31H, VH Y32H, VH Y33H (antibody, V domains shown) VH: QVQLQESGPGLVKPSETLSLTCTVSGGSISSHHWSWIRQPPGKGLEWIGYIYYSGSTNYNPSLKSRVTISVDTSKSQFSLKLSSVTAADTAVYYCARDIPAFAFDIWGQGTMVIVSS VL: EIVLTQSPATLSLSPGERATLSCRASQSVSHYLAWYQQKPGQAPRLLIYDAFNRATGIPARFSGSGSGTDFTLTISSLEPEDFAVYYCQQRINWPLTFGGGTKVEIK	1.5	68 s⁻¹	
SSSQESENITAA (synthetic overlapping peptide from human VISTA) [Spiked Peptide 31 (SSSQESENITAA)]			percent reduction in ELISA signal [4]: 5%; percent reduction in ELISA signal [5]: 8%; percent reduction in ELISA signal [6]: 27%; percent reduction in ELISA signal [7]: 0%; percent reduction in ELISA signal [8]: 0%; percent reduction in ELISA signal [9]: 15%
Antibody No. 269.1 (antibody, human IgG1, kappa) light: EIVLTQSPDFQSVTPKEKVTITCRASQSIGSSLHWYQQKPDQSPKLLIKYASQSISGVPSRFSGSGSGTDFTLTINSLEAEDAAAYYCHQSSSLPQTFGQGTKVEIKRTVAAPSVFIFPPSDEQLKSGTASVVCLLNNFYPREAKVQWKVDNALQSGNSQESVTEQDSKDSTYSLSSTLTLSKADYEKHKVYACEVTHQGLSSPVTKSFNRGEC heavy: not shown			binding result [12]: binds
